Results as given in patent US20120258482.

Target: purified recombinant 6x His-PCNA
Sequence (chain, as listed by the source): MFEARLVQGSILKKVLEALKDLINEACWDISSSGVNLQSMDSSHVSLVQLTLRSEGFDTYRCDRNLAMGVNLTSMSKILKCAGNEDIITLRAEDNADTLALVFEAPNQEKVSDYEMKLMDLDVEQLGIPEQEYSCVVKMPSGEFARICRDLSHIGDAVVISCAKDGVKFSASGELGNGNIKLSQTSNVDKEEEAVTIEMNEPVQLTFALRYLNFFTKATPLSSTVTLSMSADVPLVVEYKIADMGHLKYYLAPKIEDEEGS

B1: Flag-tagged C6orf211 protein fusion (Flag-Arm1) (protein)
chain: MAVVPASLSGQDVGSFAYLTIKDRIPQILTKVIDTLHRHKSEFFEKHGEEGVEAEKKAISLLSKLRNELQTDKPFIPLVEKFVDTDIWNQYLEYQQSLLNESDGKSRWFYSPWLLVECYMYRRIHEAIIQSPPIDYFDVFKESKEQNFYGSQESIIALCTHLQQLIRTIEDLDENQLKDEFFKLLQISLWGNKCDLSLSGGESSSQNTNVLNSLEDLKPFILLNDMEHLWSLLSNCKKTREKASATRVYIVLDNSGFELVTDLILADFLLSSELATEVHFYGKTIPWFVSDTTIHDFNWLIEQVKHSNHKWMSKCGADWEEYIKMGKWVYHNHIFWTLPHEYCAMPQVAPDLYAELQKAHLILFKGDLNYRKLTGDRKWEFSVPFHQALNGFHPAPLCTIRTLKAEIQVGLQPGQGEQLLASEPSWWTTGKYGIFQYDGPL
**Q.** For B1, which “PCNA-dependent carboxyl methyltransferase activity (vapor diffusion assay)” value is on record?
**A.** Its value is “Significant levels of PCNA-dependent carboxyl methyltransferase activity was detected in the anti-Flag Flag-Arm1 expressing extracts, and this activity was not present in the immunoprecipitates from control extracts”.
